B1: ciA-H4 (VHH)
VHH: SGGGLVQSGGSLRLSCAASVLTLEYYAIGWFRQAPGKEREGISCTGSSGGSTVYIDSVKGRFTVVRDNAKNMVYLQMDSLQPEDTAVYYCAADDLRCGRGWSSYFRGSWGQGTQVTVSS
notes: also called JEC-3; source: E. coli, purified as a thioredoxin fusion protein
B2: ciA-H11 (VHH)
VHH: QVQLVESGGGLVQPGGSLRLSCTASTLTLNYYAIGWFRQAPGKEREGVSCTGSSGGSTVYIDSVKGRFTVVRDNAKNMVYLQMDSLQPEDTAVYYCAADDLRCGRGWSSYFRGSWGQGTQVTVSS
notes: also called JEC-11; source: E. coli, purified as a thioredoxin fusion protein
B3: ciA-D1 (VHH)
VHH: QVQLVESGGGLVQPGGSLRLSCATSGFTLEYYAIGWFRQAPGKGREGVACMNSSGGGTNYADSVKGRFTISRDNAKKMVYLQMNSLKSEDTAVYYCVVDDFRCGSRWAAYLRSSWGQGTQVTVSS
notes: also called JDT-2; source: E. coli, purified as a thioredoxin fusion protein

The values that follow come from paper PMC3253120 (PLoS ONE, 2012).

The target in the assay is purified recombinant BoNT/A light chain (Lc) (Clostridium botulinum). The experiment in a line: ELISA. To be noted: both partners purified. (In an ELISA, binding on a coated surface is turned into a signal by an enzyme label.)
Turning to B1, the binding result is recorded as “binds”.
Take B2: the binding result is “binds”.
As to B3, the binding result is reported as “binds”.
